# Experimental data from the supplement of paper PMC10126150.
# ± gives the standard deviation of the averaged measurements.
# Test system: ATP
# Test: switch fluorescence ratio, 500 uM ATP over buffer (Cy3 cluster intensity, sum of 5 cycles each) (fold (ratio)); higher = stronger signal-on switching upon ATP binding; sequences stand for … in TCGTCGGCAGCGTCAGATGTGTATAAGAGACAGTTTTTTTTTTTTTTTTTTTTTTTTT…TC
# Conditions: aptamer strand: ATP DNA aptamer (quencher-CACCTGGGGGAGTATTGCGGAGGAAGG + anchor), 100 nM annealed; ATP concentration: 500 uM
# In short: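 Clusters carrying Cy3-labelled switching strands on a modified Illumina MiSeq flow-cell were annealed to 100 nM quencher-labelled ATP aptamer and imaged in selection buffer. They were imaged again after 15 min with 500 uM ATP at 22 °C, over five buffer/ATP cycles with NaOH stripping and re-annealing in between. For each cluster, the fluorescence ratio is the summed Cy3 intensity of the target cycles divided by that of the buffer cycles, averaged per switch-domain sequence. Clusters outside 100-1000 RFU were left out.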
# 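Further: ATP exposure 15 min at 22 °C before imaging.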
row,Sequence,switch fluorescence ratio
1,AAGAATGGCC,0.954 ± 0.0032
2,AAGAATGTGT,0.978 ± 0.056
3,AAGAATTGCG,0.97 ± 0.033
4,AAGACGAGTT,0.9962 ± 0.0022
5,AAGACGGGTT,1.02 ± 0.077
6,AAGACTGAGG,0.956 ± 0.026
7,AAGACTTTTT,1.025 ± 0.0076
8,AAGAGAACTT,0.993 ± 0.013
9,AAGAGAGAGC,0.989 ± 0.007
10,AAGAGAGGGT,0.998 ± 0.042
11,AAGAGCACT,1.05 ± 0.048
12,AAGAGGATGG,0.979 ± 0.011
13,AAGAGGCCCC,0.9991 ± 0.0067
14,AAGAGGGGAT,0.985 ± 0.031
15,AAGAGGGGCG,1.022 ± 0.0032
16,AAGAGGGTAA,0.963 ± 0.012
17,AAGAGGTAAA,0.972 ± 0.025
18,AAGAGGTTGC,0.99 ± 0.044
19,AAGAGTACAT,0.993 ± 0.034
20,AAGAGTGCGG,0.9742 ± 0.0074
21,AAGAGTGGCT,1.03 ± 0.017
22,AAGAGTTGTA,1.01 ± 0.019
23,AAGATGAGCT,1.004 ± 0.0043
24,AAGATGCTTA,0.9863 ± 0.0012
25,AAGATGGTGG,1.004 ± 0.0057

row,Sequence,switch fluorescence ratio
1,AAGATTATGG,0.984 ± 0.035
2,AAGATTGCTT,0.9874 ± 0.0032
3,AAGATTTGGG,0.991 ± 0.027
4,AAGCAGAGGC,1.004 ± 0.0031
5,AAGCAGGCGG,1.02 ± 0.021
6,AAGCAGGGGT,0.982 ± 0.074
7,AAGCCAAGGT,1.033 ± 0.0084
8,AAGCCAGGGG,1.46 ± 0.0077
9,AAGCCATCCG,1.07 ± 0.04
10,AAGCCCGACG,1.13 ± 0.11
11,AAGCCCGAGG,0.981 ± 0.02
12,AAGCCGCTCG,1 ± 0.015
13,AAGCCGGAGC,1.02 ± 0.053
14,AAGCCGTTTG,1.07 ± 0.088
15,AAGCGAAAAA,1.01 ± 0.092
16,AAGCGAAAGA,1.03 ± 0.014
17,AAGCGCGACG,0.991 ± 0.027
18,AAGCGGAGCC,0.966 ± 0.023
19,AAGCGGGAGG,1.02 ± 0.011
20,AAGCGGGCCT,1.02 ± 0.026
21,AAGCGTAGAT,1.009 ± 0.0074
22,AAGCGTTAGC,1.01 ± 0.014
23,AAGCGTTGAG,1.009 ± 0.0045
24,AAGCGTTGTA,1.01 ± 0.02
25,AAGCTCGACG,0.9695 ± 0.0026

row,Sequence,switch fluorescence ratio
1,AAGCTCGCCG,0.981 ± 0.06
2,AAGCTGGGAC,1.08 ± 0.015
3,AAGCTGGGGG,0.969 ± 0.033
4,AAGCTGGTG,1.09 ± 0.042
5,AAGGAAAAAC,1.03 ± 0.029
6,AAGGAAACGT,1.04 ± 0.039
7,AAGGAATAGT,1.01 ± 0.026
8,AAGGAATCGC,1 ± 0.027
9,AAGGAATGCA,0.993 ± 0.022
10,AAGGACGGCC,0.998 ± 0.026
11,AAGGAGAATA,1.03 ± 0.012
12,AAGGAGCTAT,1.05 ± 0.026
13,AAGGAGGGGG,1.02 ± 0.058
14,AAGGAGGGTA,1.01 ± 0.038
15,AAGGAGTTGT,0.951 ± 0.05
16,AAGGAGTTTG,0.969 ± 0.045
17,AAGGATCTGC,0.967 ± 0.052
18,AAGGATGAGG,0.987 ± 0.021
19,AAGGATGTAA,0.995 ± 0.03
20,AAGGATGTTT,0.9824 ± 0.0033
21,AAGGCAAATT,0.986 ± 0.026
22,AAGGCAAGTC,1.13 ± 0.091
23,AAGGCACTTT,1.02 ± 0.013
24,AAGGCAGATC,1.05 ± 0.037
25,AAGGCAGGTC,1.02 ± 0.029

row,Sequence,switch fluorescence ratio
1,AAGGCCCTGA,0.994 ± 0.012
2,AAGGCGAGGA,1.043 ± 0.0043
3,AAGGCGCTCT,0.997 ± 0.014
4,AAGGCGGATT,1.26 ± 0.36
5,AAGGCTGAGG,0.985 ± 0.018
6,AAGGCTGCGA,1.018 ± 0.0076
7,AAGGGAAGGG,0.998 ± 0.025
8,AAGGGAAGT,1.02 ± 0.034
9,AAGGGAATTA,0.986 ± 0.015
10,AAGGGACAAA,1.04 ± 0.014
11,AAGGGACGTG,0.984 ± 0.019
12,AAGGGAGAAA,0.984 ± 0.06
13,AAGGGAGAGA,1.02 ± 0.011
14,AAGGGAGCTG,1.02 ± 0.15
15,AAGGGAGGGA,1.01 ± 0.036
16,AAGGGATACG,1.02 ± 0.015
17,AAGGGATAGG,0.9844 ± 0.001
18,AAGGGATTGC,0.995 ± 0.053
19,AAGGGCAAAT,0.978 ± 0.015
20,AAGGGCCAAT,1 ± 0.022
21,AAGGGCCCGT,1.02 ± 0.022
22,AAGGGCGCAG,0.993 ± 0.056
23,AAGGGCTATA,1.01 ± 0.047
24,AAGGGCTGCG,0.98 ± 0.1
25,AAGGGCTTCT,1.01 ± 0.018
